Laboratory results: PMC8536467 (Molecular cell, 2021)
Where no end group is shown, it is not given here. Me2 = dimethyl (dimethylated lysine)

Biological target: Human 53BP1-Tudor (residues 1484-1603) (human, UniProt Q12888 1484-1603)
Assay: ITC

Human 53BP1-Tudor (residues 1484-1603), sequence (Q12888 1484-1603): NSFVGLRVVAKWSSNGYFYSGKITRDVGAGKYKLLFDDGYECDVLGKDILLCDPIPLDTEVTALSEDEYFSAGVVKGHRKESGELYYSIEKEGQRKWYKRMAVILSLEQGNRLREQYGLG

SSHLK(Me2)SKKGQ (peptide, UniProt P04637 366-375, looked up) [p53K370me2 peptide (residues 366-375)]
Kd: 52 µM

TSRHKK(Me2)LMFK (peptide, UniProt P04637 377-386, looked up) [p53K382me2 peptide (residues 377-386)]
Kd: 8 µM
